Data reported in patent US20020151497.

Columns and labels:
[1] = molecular target: Syk, endogenous, from WEHI-231 cells (UniProt P48025)
[2] = molecular target: Lyn-kinase, endogenous, immunoprecipitated from WEHI-231 cells (UniProt P25911)
[3] = molecular target: T1, CD19, endogenous, immunoprecipitated from WEHI-231 cells (UniProt P25918)
T1 sequence: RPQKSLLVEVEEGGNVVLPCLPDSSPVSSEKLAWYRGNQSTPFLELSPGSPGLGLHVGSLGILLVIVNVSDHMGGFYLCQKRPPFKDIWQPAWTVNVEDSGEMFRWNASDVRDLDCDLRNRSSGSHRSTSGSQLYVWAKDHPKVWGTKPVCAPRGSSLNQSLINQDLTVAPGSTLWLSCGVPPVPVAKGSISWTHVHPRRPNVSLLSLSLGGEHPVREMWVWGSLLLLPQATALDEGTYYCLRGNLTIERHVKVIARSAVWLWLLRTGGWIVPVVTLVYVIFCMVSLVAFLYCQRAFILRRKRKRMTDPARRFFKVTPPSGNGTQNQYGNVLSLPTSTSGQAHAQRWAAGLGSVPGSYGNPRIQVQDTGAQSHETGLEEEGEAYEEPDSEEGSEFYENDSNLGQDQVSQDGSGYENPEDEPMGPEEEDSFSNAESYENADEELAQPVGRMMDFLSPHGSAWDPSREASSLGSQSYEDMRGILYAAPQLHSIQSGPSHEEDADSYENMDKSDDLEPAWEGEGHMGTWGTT

Sequence of Syk, endogenous, from WEHI-231 cells (P48025 whole entry, looked up): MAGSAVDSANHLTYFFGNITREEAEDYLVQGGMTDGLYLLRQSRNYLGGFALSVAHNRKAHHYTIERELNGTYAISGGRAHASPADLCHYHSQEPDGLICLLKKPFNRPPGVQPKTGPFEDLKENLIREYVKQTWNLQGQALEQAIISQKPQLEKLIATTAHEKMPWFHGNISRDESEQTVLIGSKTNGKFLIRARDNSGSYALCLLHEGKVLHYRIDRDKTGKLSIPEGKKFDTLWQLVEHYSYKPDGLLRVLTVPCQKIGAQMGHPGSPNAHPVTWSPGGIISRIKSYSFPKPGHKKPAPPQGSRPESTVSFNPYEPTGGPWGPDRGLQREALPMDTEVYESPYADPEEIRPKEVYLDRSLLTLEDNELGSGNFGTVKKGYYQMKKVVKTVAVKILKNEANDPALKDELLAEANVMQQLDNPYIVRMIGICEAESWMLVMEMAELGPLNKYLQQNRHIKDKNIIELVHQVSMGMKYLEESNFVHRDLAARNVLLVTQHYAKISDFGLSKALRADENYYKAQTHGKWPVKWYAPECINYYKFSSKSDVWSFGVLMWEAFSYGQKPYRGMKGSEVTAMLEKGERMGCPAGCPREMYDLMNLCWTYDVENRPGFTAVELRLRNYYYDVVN
Sequence of Lyn-kinase, endogenous, immunoprecipitated from WEHI-231 cells (P25911 whole entry, looked up): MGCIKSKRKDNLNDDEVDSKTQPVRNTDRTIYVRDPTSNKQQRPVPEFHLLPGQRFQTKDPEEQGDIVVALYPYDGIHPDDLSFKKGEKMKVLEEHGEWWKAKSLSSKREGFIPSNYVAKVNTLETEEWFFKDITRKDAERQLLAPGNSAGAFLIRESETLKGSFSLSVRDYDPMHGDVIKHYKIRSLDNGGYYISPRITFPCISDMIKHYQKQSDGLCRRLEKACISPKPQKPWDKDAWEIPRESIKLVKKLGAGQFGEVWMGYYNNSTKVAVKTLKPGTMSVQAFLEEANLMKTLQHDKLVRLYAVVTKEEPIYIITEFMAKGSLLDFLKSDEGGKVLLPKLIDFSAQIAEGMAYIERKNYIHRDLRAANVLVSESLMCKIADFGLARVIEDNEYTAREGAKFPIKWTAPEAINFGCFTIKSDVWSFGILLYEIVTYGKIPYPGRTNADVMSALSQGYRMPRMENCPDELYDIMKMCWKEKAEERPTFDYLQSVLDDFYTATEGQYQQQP

## exogenous Lyn (5 units added to the kinase assay)
[1]
  phosphorylation level of immunoprecipitated Syk (anti-phosphotyrosine Western blot) with exogenous Lyn and 0, 10, 50 and 100 µM K055H302: Lyn, CD19 and Syk all showed dose-dependent decreased phosphorylation in the presence of the compound of the invention
[2]
  phosphorylation level of immunoprecipitated Lyn (anti-phosphotyrosine Western blot) with exogenous Lyn and 0, 10, 50 and 100 µM K055H302: Lyn, CD19 and Syk all showed dose-dependent decreased phosphorylation in the presence of the compound of the invention
[3]
  phosphorylation level of immunoprecipitated CD19 (anti-phosphotyrosine Western blot) with exogenous Lyn and 0, 10, 50 and 100 µM K055H302: Lyn, CD19 and Syk all showed dose-dependent decreased phosphorylation in the presence of the compound of the invention
